Assay results: patent publication US20190184035, “BCL11A HOMING ENDONUCLEASE VARIANTS, COMPOSITIONS, AND METHODS OF USE” (bluebird bio, Inc., published 2019)

T1: BCL11A.B4.A3 I-OnuI homing endonuclease variant (mammalian expression) (Ophiostoma novo-ulmi)
T1 chain: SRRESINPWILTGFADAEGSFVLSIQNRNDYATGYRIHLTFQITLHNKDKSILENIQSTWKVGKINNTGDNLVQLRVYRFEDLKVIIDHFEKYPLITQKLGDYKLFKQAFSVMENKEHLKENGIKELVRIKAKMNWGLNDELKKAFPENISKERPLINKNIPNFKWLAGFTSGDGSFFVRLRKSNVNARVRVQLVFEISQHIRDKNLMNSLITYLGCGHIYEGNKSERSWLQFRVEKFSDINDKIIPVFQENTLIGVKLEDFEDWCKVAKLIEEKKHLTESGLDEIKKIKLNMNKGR

T2: BCL11A.B4.A3 I-OnuI homing endonuclease variant (Ophiostoma novo-ulmi)
T2 chain: T1 chain

B1: BCL11A HE target site (dsDNA)
DNA 1: CAGTTGCTTTTATCACAGGCTC
DNA 2: GAGCCTGTGATAAAAGCAACTG

What was measured:
[1] = system: CCR5 megaTAL (Artificial); assay: cell_activity; conditions: human CD34+ cells; full megaTAL site not given, HE site given
[2] = target: T1, BCL11A.B4.A3 I-OnuI homing endonuclease …; assay: cell_activity; HEK 293T chromosomal mCherry reporter; conditions: tags: mammalian expression plasmid
Experimental: The activity of reprogrammed I-OnuI HEs that target the GATA-1 motif in the BCL11A gene was measured using a chromosomally integrated fluorescent reporter system (Certo et. al., 2011). Fully reprogrammed I-OnuI HEs that bind and cleave the BCL11A target sequence were cloned into mammalian expression plasmids and then individually transfected into a HEK 293T […] cell line that was reprogrammed to contain the BCL11A target sequence upstream of an out-of-frame gene encoding the fluorescent mCherry protein. Cleavage of the embedded target site by the HE and the subsequent accumulation of small insertions or deletions, caused by DNA repair via the non-homologous end joining (NHEJ) pathway, results in approximately one out of three repaired loci placing the fluorescent reporter gene back “in-frame”. mCherry fluorescence is therefore a readout of endonuclease activity at the chromosomally embedded target sequence. […] FIG. 4A.
A secondary I-OnuI variant library was generated by performing random mutagenesis one of the reprogrammed I-OnuI HEs that targets the BCL11A target site, identified in the initial reporter screen (BCL11.A.B4, SEQ ID NO: 6). In addition, display-based flow sorting was performed under more stringent cleavage conditions (pH adjusted to 7.2) in an effort to isolate variants with improved catalytic efficiency. FIG. 4B. […]

[3] = target: T2, BCL11A.B4.A3 I-OnuI homing endonuclease …; assay: flow; yeast surface display equilibrium binding titration
Source text: The DNA binding affinity and cleavage specificity of the I-OnuI variant BCL11A.B4.A3 was characterized. A plasmid encoding the BCL11A.B4.A3 variant identified during reprogramming (SEQ ID NO: 34) was transformed into S. cerevisiae for surface display.

Molecule | activity [1] [% indels] | activity [2] [fold vs BCL11A.B4] | Kd [3] [nM]
CTTCCAGGAATTCTTTGGCCTG (double strand) [CCR5 HE target site] | 10 |  | 
B1 |  | ~3 | ~0.5
